Data set [1] has as its target T1, MBP-ECD1 (UniProt Q5G1T1 51-850).
T1 sequence: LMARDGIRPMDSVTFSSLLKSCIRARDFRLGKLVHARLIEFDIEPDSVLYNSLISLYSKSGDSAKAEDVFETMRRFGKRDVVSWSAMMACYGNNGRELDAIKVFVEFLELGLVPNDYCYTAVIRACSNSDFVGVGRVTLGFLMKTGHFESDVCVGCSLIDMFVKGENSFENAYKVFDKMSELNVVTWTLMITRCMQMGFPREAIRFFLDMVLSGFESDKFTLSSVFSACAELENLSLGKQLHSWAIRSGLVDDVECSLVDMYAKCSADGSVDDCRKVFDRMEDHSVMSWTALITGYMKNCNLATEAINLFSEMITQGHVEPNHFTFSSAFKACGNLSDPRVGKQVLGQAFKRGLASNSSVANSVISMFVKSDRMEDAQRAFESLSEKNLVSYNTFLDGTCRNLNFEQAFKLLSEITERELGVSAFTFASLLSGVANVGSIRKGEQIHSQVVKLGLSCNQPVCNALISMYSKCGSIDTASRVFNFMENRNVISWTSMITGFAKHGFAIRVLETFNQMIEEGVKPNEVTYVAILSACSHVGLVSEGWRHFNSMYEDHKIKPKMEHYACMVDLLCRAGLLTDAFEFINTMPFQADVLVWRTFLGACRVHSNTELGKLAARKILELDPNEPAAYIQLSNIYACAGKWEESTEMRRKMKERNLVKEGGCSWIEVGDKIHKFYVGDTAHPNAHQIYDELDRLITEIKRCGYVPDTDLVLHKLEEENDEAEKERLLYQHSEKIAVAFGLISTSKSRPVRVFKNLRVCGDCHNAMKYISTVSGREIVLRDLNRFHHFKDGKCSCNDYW
The data set can be described thus: EMSA; 25, 50, 100 nM protein, 10 nM probe; unlabeled same RNA (10-, 50-, 100-fold) used as competitor confirmed specificity; LightShift Chemiluminescent RNA EMSA Kit (Thermo 20158), 20 min at 25 °C, 6% Tris-borate gel in 0.5x TBE; binding buffer, salt and pH not stated. To be noted: protein: recombinant; tags: N-terminal MBP; primer adds HHHHHH-ENLYFQG (TEV site); label: 5' biotin; single strand. In general terms: In EMSA bound probe runs differently from free probe, usually more slowly.

For data set [2], the target named is T1, MBP-ECD1. The data set can be described thus: EMSA; 25, 50, 100 nM protein, 10 nM probe; LightShift Chemiluminescent RNA EMSA Kit (Thermo 20158), 20 min at 25 °C, 6% Tris-borate gel in 0.5x TBE; binding buffer, salt and pH not stated. As to conditions: protein: recombinant; tags: N-terminal MBP; primer adds HHHHHH-ENLYFQG (TEV site); label: 5' biotin; single strand.

Consider two molecules from article PMC5972661, “ECD1 functions as an RNA-editing trans-factor of rps14-149 in plastids and is required for early chloroplast development in seedlings”.

Take GAAAAUUCAUGGAAAAUUACAAUCCCCACCGCG (ssRNA) [rps14-149]: the binding result with MBP-ECD1 [1] is recorded as “binds”.
As for AAAUAUCAUUUGAUUCGUCGAUCCUCAAAAAAG (ssRNA) [rps14-80], the binding result with MBP-ECD1 [2] is reported as “no binding”.
